Key:
Assay in all cases: cell-based or functional assay
[1] = target: T1, human PDL1 stably expressed on CHO cells (human, UniProt Q9NZQ7 19-290)
[2] = target: T1, human PDL1 stably expressed on CHO cells; remark: listed apart in the source
[3] = target: T1, human PDL1 stably expressed on CHO cells; remark: listed apart in the source
[4] = target: T1, human PDL1 stably expressed on CHO cells; remark: listed apart in the source

T1 sequence (Q9NZQ7 19-290 limits assumed): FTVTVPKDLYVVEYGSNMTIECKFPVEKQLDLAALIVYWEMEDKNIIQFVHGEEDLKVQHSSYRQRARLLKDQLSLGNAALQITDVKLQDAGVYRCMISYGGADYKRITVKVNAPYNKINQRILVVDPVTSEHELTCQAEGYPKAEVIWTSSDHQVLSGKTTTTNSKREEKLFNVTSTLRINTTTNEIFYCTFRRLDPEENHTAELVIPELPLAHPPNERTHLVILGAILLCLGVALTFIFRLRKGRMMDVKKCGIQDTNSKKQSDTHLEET

EC50 (read off the curve); luminescence (RLU) of the NFAT reporter, PDL1 Blockade assay (CHO-PDL1) [top panel] [1] [nM] | EC50 (read off the curve); luminescence (RLU) of the NFAT reporter, PDL1 Blockade assay (CHO-PDL1) [middle panel] [1] [nM] | Binder | also measured
 | ~1 | 3D5 VHH-Fc (antibody, human IgG1, V domains shown) VH: QVQLVESGGGVVQPGRSLRLSCAASGGPFMSYAMGWFRQAPGKEREFVAAIRWSGHSTFYADSVKGRFTISRDNSKNTLYLQMNSLRAEDTAVYYCAAAQTISTVPENYEFDYWGQGTQVTVSS | 
 | ~2 | 5D8 VHH-Fc (antibody, human IgG1, V domains shown) VH: QVQLVESGGGVVQPGRSLRLSCAASGGPFMSYAMGWFRQAPGKEREFVAAIRWSGQSTFYADSVKGRFTISRDNSKNTLYLQMNSLRAEDTAVYYCAAAQTIVTVPSNYEFDYWGQGTQVTVSS | 
 | ~2 | 5G10 VHH-Fc (antibody, human IgG1, V domains shown) VH: QVQLVESGGGVVQPGRSLRLSCAASGGPFMSYAMGWFRQAPGKEREFVAAIRWSGASTFYADSVKGRFTISRDNSKNTLYLQMNSLRAEDTAVYYCAAAQTIVTVPENYEFDYWGQGTQVTVSS | 
 | ~1 | 10A4 VHH-Fc (chimeric bivalent antibody) (antibody, human IgG1, V domains shown) VH: QVKLEESGGGLVMAGGSLRLSCAASGGPFMSYAMGWFRQAPGKEREFVAAIRWNGISTFYADSVKGRFTVSRDNGKNMAFLQMNSLKPEDTAVYYCAAAQTIVTVPENYEYHYWGQGTQVTVSS | EC50; NFAT luciferase reporter (RLU), whole cell PDL1/PD1 blocking assay; printed as 10A4 Parental [2]: 3.79 nM; EC50; NFAT luciferase reporter (RLU), CHO cells with human PDL1 co-incubated with Jurkat cells with human PD1 and NFAT reporter, blocking of PDL1/PD1 [4]: 0.242 nM

Further lines, the binder ahead of its results:

Binder | EC50 (read off the curve); luminescence (RLU) of the NFAT reporter, PDL1 Blockade assay (CHO-PDL1) [top panel] [1] [nM] | EC50 (read off the curve); luminescence (RLU) of the NFAT reporter, PDL1 Blockade assay (CHO-PDL1) [middle panel] [1] [nM] | also measured
2F9 VHH-Fc (antibody, human IgG1, V domains shown) VH: QVQLVESGGGVVQPGRSLRLSCAASGGPFMSYAMGWFRQAPGKEREFVAAIRWSGISTFYADSVKGRFTISRDNSKNTLYLQMNSLRAEDTAVYYCAAAQTIVTVPENYEFDYWGQGTQVTVSS | ~2 |  | 
1E4 VHH-Fc (antibody, human IgG1, V domains shown) VH: QVQLVESGGGVVQPGRSLRLSCAASGGPFMSYAMGWFRQAPGKEREFVAAIRWNGISTFYADSVKGRFTISRDNSKNTLYLQMNSLRAEDTAVYYCAAAQTIVTVPENYEFDYWGQGTQVTVSS | ~2 |  | 
1F6 VHH-Fc (antibody, human IgG1, V domains shown) VH: QVQLVESGGGVVQPGRSLRLSCAASGGPFMSYAMGWFRQAPGKEREFVAAIRWSGKSTFYADSVKGRFTISRDNSKNTLYLQMNSLRAEDTAVYYCAAAQTIVTVPESYEFDYWGQGTQVTVSS | ~2 |  | 
1G12 VHH-Fc (antibody, human IgG1, V domains shown) VH: QVQLVESGGGVVQPGRSLRLSCAASGGPFMSYAMGWFRQAPGKEREFVAAIRWSGLSTFYADSVKGRFTISRDNSKNTLYLQMNSLRAEDTAVYYCAAAQTIVTVPENYNFDYWGQGTQVTVSS |  | ~1 | 
1H2 VHH-Fc (antibody, human IgG1, V domains shown) VH: QVQLVESGGGVVQPGRSLRLSCAASGGPFMSYAMGWFRQAPGKEREFVAAIRWSGLSTFYADSVKGRFTISRDNSKNTLYLQMNSLRAEDTAVYYCAAAPTIVTVPENYEFDYWGQGTQVTVSS | ~2 |  | 
Humanized 10A4 GLEF VHH-Fc (antibody, human IgG1, V domains shown) VH: EVQLVESGGGLVQPGGSLRLSCAASGGPFMSYAMGWVRQAPGKGLEFVAAIRWNGISTFYADSVKGRFTISRDNSKNTLYLQMNSLRAEDTAVYYCAAAQTIVTVPENYEYHYWGQGTQVTVSS |  |  | EC50; NFAT luciferase reporter (RLU), whole cell PDL1/PD1 blocking assay [2]: 8.3 nM
Humanized 10A4 GLEF-N2S VHH-Fc (antibody, human IgG1, V domains shown) VH: EVQLVESGGGLVQPGGSLRLSCAASGGPFMSYAMGWVRQAPGKGLEFVAAIRWSGISTFYADSVKGRFTISRDNSKNTLYLQMNSLRAEDTAVYYCAAAQTIVTVPENYEYHYWGQGTQVTVSS |  |  | EC50 (read off the curve); luminescence (RLU) of the NFAT reporter, PDL1 Blockade assay (CHO-PDL1) [bottom panel] [1]: ~2 nM; EC50; NFAT luciferase reporter (RLU), whole cell PDL1/PD1 blocking assay [2]: 7.37 nM; EC50; NFAT luciferase reporter (RLU), whole cell PDL1/PD1 blocking assay; printed as 10A4 GLEF-N2S [3]: 0.824 nM
